Reference: IntAct's records for PubMed 24240280

B1: Synaptic vesicle glycoprotein 2C (Homo sapiens), Q496J9 (parent)
chain: MEDSYKDRTSLMKGAKDIAREVKKQTVKKVNQAVDRAQDEYTQRSYSRFQDEEDDDDYYPAGETYNGEANDDEGSSEATEGHDEDDEIYEGEYQGIPSMNQAKDSIVSVGQPKGDEYKDRRELESERRADEEELAQQYELIIQECGHGRFQWALFFVLGMALMADGVEVFVVGFVLPSAETDLCIPNSGSGWLGSIVYLGMMVGAFFWGGLADKVGRKQSLLICMSVNGFFAFLSSFVQGYGFFLFCRLLSGFGIGGAIPTVFSYFAEVLAREKRGEHLSWLCMFWMIGGIYASAMAWAIIPHYGWSFSMGSAYQFHSWRVFVIVCALPCVSSVVALTFMPESPRFLLEVGKHDEAWMILKLIHDTNMRARGQPEKVFTVNKIKTPKQIDELIEIESDTGTWYRRCFVRIRTELYGIWLTFMRCFNYPVRDNTIKLTIVWFTLSFGYYGLSVWFPDVIKPLQSDEYALLTRNVERDKYANFTINFTMENQIHTGMEYDNGRFIGVKFKSVTFKDSVFKSCTFEDVTSVNTYFKNCTFIDTVFDNTDFEPYKFIDSEFKNCSFFHNKTGCQITFDDDYSAYWIYFVNFLGTLAVLPGNIVSALLMDRIGRLTMLGGSMVLSGISCFFLWFGTSESMMIGMLCLYNGLTISAWNSLDVVTVELYPTDRRATGFGFLNALCKAAAVLGNLIFGSLVSITKSIPILLASTVLVCGGLVGLCLPDTRTQVLM

Variants of: B1
Details: with bxa1_clobo botA

Question: With F563A as the variant, how does the “effect of a mutation on the interaction” value read?
Answer: Its value is “disrupting interaction strength”.
